The source of these data is patent US20190002511A1 (NATIONAL UNIVERSITY OF SINGAPORE, published 2019).

For assay [1], the target named is T1, human α-thrombin (recombinant) (human, UniProt P00734 328-363; P00734 364-622). Put plainly: cell-based or functional assay.
Assay [2] addresses T1, human α-thrombin (recombinant). In words: cell-based or functional assay. The source holds these as a separate data set.
Assay [3] has the same target. Put plainly: thrombin amidolytic assay with S2238, Morrison tight-binding fit, competitive.
Description: Data were fitted to the Morrison tight binding equation using GraphPad Prizm software. Each data point is the mean±S.D. of at least three experiments.
Each data point is the mean±S.D. of at least three independent experiments. […] Each data point is the mean±S.D. of at least three independent experiments. […] Each data point is the mean±S.D. of at least three experiments.
Thrombin amidolytic activity assays for all peptides were performed in 96-wells microtiter plates in 50 mM Tris buffer (pH 7.4) containing 100 mM NaCl and 1 mg/ml bovine serum albumin.
Assay [4] shares this target. Put plainly: thrombin amidolytic assay with S2238; column headed Affinity (nM).
Description: Each data point is the mean±S.D. of at least three experiments. […] Data were fitted to the Morrison tight binding equation using GraphPad Prizm software. Each data point is the mean±S.D. of at least three experiments.
Thrombin amidolytic activity assays for all peptides were performed in 96-wells microtiter plates in 50 mM Tris buffer (pH 7.4) containing 100 mM NaCl and 1 mg/ml bovine serum albumin. […] Dose-response curves were fitted using the GraphPad Prizm software (San Diego, Calif., USA) to calculate IC50 values and Hill coefficients. To measure the inhibitory constants, different concentrations of S2238 were used and the residual velocities were determined using the Morrison's tight binding equation.
For another assay, the target named is urokinase. Put plainly: cell-based or functional assay.
The target of another assay is tPA. Put plainly: cell-based or functional assay.
The target in the next assay is fXIa. In words: cell-based or functional assay.
Assay [5] concerns the target T1, human α-thrombin (recombinant). Put plainly: cell-based or functional assay. This is another data set of the same source.
A further assay addresses fXa. Put plainly: cell-based or functional assay.
A further assay deals with fVIIa. Put plainly: cell-based or functional assay.
The target in the next assay is kallikrein. Put plainly: cell-based or functional assay.
The target in a further assay is APC. Put plainly: cell-based or functional assay.
A further assay has as its target bovine trypsin (bovine, UniProt P00760 24-246). Put plainly: cell-based or functional assay.
A further assay deals with fIXa. In words: cell-based or functional assay.
For the next assay, the target named is plasmin. In words: cell-based or functional assay.
Another assay addresses fXIIa. Put plainly: cell-based or functional assay.
In a further assay the target is bovine chymotrypsin (bovine, UniProt P00766 1-245). Put plainly: cell-based or functional assay.

Chain of bovine trypsin (P00760 24-246): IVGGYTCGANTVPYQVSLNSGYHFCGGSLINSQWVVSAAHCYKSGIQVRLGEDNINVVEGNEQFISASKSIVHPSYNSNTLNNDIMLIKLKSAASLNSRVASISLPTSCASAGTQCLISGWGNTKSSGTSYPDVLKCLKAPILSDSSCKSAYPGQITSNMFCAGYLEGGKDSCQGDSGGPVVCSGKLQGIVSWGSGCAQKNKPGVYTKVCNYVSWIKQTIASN
Chain of fVIIa (P08709 whole entry): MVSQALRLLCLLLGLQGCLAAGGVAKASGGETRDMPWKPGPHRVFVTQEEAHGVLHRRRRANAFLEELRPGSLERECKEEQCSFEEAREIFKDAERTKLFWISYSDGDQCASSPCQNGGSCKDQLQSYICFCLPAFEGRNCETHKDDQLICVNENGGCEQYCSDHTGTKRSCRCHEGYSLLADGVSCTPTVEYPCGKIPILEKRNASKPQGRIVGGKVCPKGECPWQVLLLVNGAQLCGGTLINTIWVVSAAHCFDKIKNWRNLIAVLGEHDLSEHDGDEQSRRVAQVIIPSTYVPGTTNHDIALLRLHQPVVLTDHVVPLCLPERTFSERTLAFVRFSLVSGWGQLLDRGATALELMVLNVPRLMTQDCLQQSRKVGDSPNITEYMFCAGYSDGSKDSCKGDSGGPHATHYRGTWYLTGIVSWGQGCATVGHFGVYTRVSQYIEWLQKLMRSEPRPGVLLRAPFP
Chain of fXa (P00742 whole entry): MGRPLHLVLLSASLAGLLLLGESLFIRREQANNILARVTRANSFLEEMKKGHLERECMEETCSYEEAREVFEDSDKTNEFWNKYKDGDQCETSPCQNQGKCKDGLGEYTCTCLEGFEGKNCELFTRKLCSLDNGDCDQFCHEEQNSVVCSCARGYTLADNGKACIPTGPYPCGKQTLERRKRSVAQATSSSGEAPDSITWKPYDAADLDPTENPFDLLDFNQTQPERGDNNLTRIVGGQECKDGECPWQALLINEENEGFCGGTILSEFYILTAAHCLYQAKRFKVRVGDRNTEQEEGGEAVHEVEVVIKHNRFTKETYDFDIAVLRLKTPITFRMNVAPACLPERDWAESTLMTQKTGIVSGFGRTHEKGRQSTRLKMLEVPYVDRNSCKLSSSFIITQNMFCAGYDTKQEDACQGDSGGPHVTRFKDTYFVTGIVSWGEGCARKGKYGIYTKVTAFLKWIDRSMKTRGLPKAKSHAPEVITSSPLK

B1: avathrin (Amblyomma variegatum thrombin inhibitor) (peptide)
peptide: SGGHQTAVPKISKQGLGGDFEEIPSDEIIE
notes: Synthetic 30-residue peptide; one repeat of precursor protein BAD29729
One may read the Ki as the dissociation constant of the complex between target and ligand, obtained from inhibition or displacement. Turning to B1, the “IC50, inhibition of thrombin amidolytic activity” value in assay [1] was 6.95 nM. In assay [2], the “IC50, inhibition of thrombin amidolytic activity (S2238)” value is 6.95 nM. For the same molecule, the Ki in assay [3] and in assay [4] was 0.545 nM in each case. The “percent inhibition of amidolytic activity at 100 µM avathrin” value with urokinase, in the assay with tPA, in the assay with fXIa, with fXa, with fVIIa and with kallikrein was below 30% throughout. In addition, the “percent inhibition of amidolytic activity at 100 µM avathrin” value with APC, with bovine trypsin, in the assay with fIXa, in the assay with plasmin, with fXIIa and with bovine chymotrypsin was below 30% throughout. Also, in assay [5], the “IC50, inhibition of the amidolytic activity of clot-bound thrombin (S2238)” value turned out to be 1740 nM. In addition, the “IC50, inhibition of thrombin amidolytic activity, 10 min pre-incubation” value in assay [5] was 4.86 nM. The “percent of thrombin amidolytic activity inhibited at 24 h of incubation (avathrin in about 30-fold excess)” value in assay [5] is above 45%.
